Measured values from PMC10755861, “Structural analysis and functional evaluation of the disordered ß–hexosyltransferase region from Hamamotoa (Sporobolomyces) singularis” (Frontiers in Bioengineering and Biotechnology, 2023).

B1: rBHT(54–594)-HIS, recombinant ß-hexosyltransferase from Hamamotoa (Sporobolomyces) singularis, residues 54–594 (enzyme, UniProt Q564N5 54-594, looked up)
chain: TGTAELDALWNLVEAQYPVQTAAVTTLVTVPDDYKFEADPPSYALAGYETSEIAGLKFPKGFKFGVAGAAIQVEGAAKAEGRGPSTWDYLCHHYASTQCNNYDPDITTNHYYLYPLDFARLQHLGINTYSFSISWTRIYPLGAGYVNEAGLAHYDAVIHSAKKYGLEPVGTVFHWDTPLSLMLKYGAWQDTGDQIVKDFVTYATTVFKRYGNEVKTWFTFNEPRVFCSQNSGLPYNLTYPEGINSTSAVFRCTYNVLKAHGHAVKVYRDLVASGTIAAGEIGFKSDDNYPIPARPGNADDEESAKRHEAFRIGIFAQPVYGNGDYPDVVKETVGDMLPALTDEDKGYIKGSGDIFAIDGYRTDISHAALNGIANCIRNQSDPNWPVCEEGSDPFAHVYPSGFAIGQSADPLSSWLVNSAPFIRDQLKFLTQTYPAKGGIYFSEFGWAEDAEYDRQLLYQITWDGLRTQYLTDYLSQLLLAVHKDGINLRGALTWSFVDNWEWGLGMQQKFGFQFVNQSDPDLTRTFKLSAHAYAQFGRNHL
notes: ß-hexosyltransferase (BHT, BglA) of Hamamotoa (Sporobolomyces) singularis, 594-residue polypeptide, residues 54-594; Expressed behind the MFα pre-pro leader of pPIC9 (primer encodes KR-EAEA before residue 54; leftover leader residues are a surmise); Glycosylated enzyme; also called GS115::MFα-rBht(54–594)-HIS; JB224; not shown: His6, C-terminal, kept
B2: rBHT(57–594)-HIS, recombinant ß-hexosyltransferase from Hamamotoa (Sporobolomyces) singularis, residues 57–594 (enzyme, UniProt Q564N5 57-594, looked up)
chain: AELDALWNLVEAQYPVQTAAVTTLVTVPDDYKFEADPPSYALAGYETSEIAGLKFPKGFKFGVAGAAIQVEGAAKAEGRGPSTWDYLCHHYASTQCNNYDPDITTNHYYLYPLDFARLQHLGINTYSFSISWTRIYPLGAGYVNEAGLAHYDAVIHSAKKYGLEPVGTVFHWDTPLSLMLKYGAWQDTGDQIVKDFVTYATTVFKRYGNEVKTWFTFNEPRVFCSQNSGLPYNLTYPEGINSTSAVFRCTYNVLKAHGHAVKVYRDLVASGTIAAGEIGFKSDDNYPIPARPGNADDEESAKRHEAFRIGIFAQPVYGNGDYPDVVKETVGDMLPALTDEDKGYIKGSGDIFAIDGYRTDISHAALNGIANCIRNQSDPNWPVCEEGSDPFAHVYPSGFAIGQSADPLSSWLVNSAPFIRDQLKFLTQTYPAKGGIYFSEFGWAEDAEYDRQLLYQITWDGLRTQYLTDYLSQLLLAVHKDGINLRGALTWSFVDNWEWGLGMQQKFGFQFVNQSDPDLTRTFKLSAHAYAQFGRNHL
notes: ß-hexosyltransferase (BHT, BglA) of Hamamotoa (Sporobolomyces) singularis, 594-residue polypeptide, residues 57-594; Expressed behind the MFα pre-pro leader of pPIC9 (primer encodes KR-EAEA before residue 57; leftover leader residues are a surmise); Glycosylated enzyme; also called GS115::MFα-rBht(57–594)-HIS; JB225; not shown: His6, C-terminal, kept
B3: rBHT(32–594)-HIS, recombinant ß-hexosyltransferase from Hamamotoa (Sporobolomyces) singularis, residues 32–594 (enzyme, UniProt Q564N5 32-594, looked up)
chain: SLTSNYETPSPTAIPLEPTPTATGTAELDALWNLVEAQYPVQTAAVTTLVTVPDDYKFEADPPSYALAGYETSEIAGLKFPKGFKFGVAGAAIQVEGAAKAEGRGPSTWDYLCHHYASTQCNNYDPDITTNHYYLYPLDFARLQHLGINTYSFSISWTRIYPLGAGYVNEAGLAHYDAVIHSAKKYGLEPVGTVFHWDTPLSLMLKYGAWQDTGDQIVKDFVTYATTVFKRYGNEVKTWFTFNEPRVFCSQNSGLPYNLTYPEGINSTSAVFRCTYNVLKAHGHAVKVYRDLVASGTIAAGEIGFKSDDNYPIPARPGNADDEESAKRHEAFRIGIFAQPVYGNGDYPDVVKETVGDMLPALTDEDKGYIKGSGDIFAIDGYRTDISHAALNGIANCIRNQSDPNWPVCEEGSDPFAHVYPSGFAIGQSADPLSSWLVNSAPFIRDQLKFLTQTYPAKGGIYFSEFGWAEDAEYDRQLLYQITWDGLRTQYLTDYLSQLLLAVHKDGINLRGALTWSFVDNWEWGLGMQQKFGFQFVNQSDPDLTRTFKLSAHAYAQFGRNHL
notes: ß-hexosyltransferase (BHT, BglA) of Hamamotoa (Sporobolomyces) singularis, 594-residue polypeptide, residues 32-594; Expressed behind the MFα pre-pro leader of pPIC9 (primer encodes KR-EAEA before residue 32; leftover leader residues are a surmise); Glycosylated enzyme; also called GS115::MFα-rBht(32–594)-HIS; JB223; not shown: His6, C-terminal, kept
B4: rBHT(23–594)-HIS, recombinant ß-hexosyltransferase from Hamamotoa (Sporobolomyces) singularis, residues 23–594 (enzyme, UniProt Q564N5 23-594, looked up)
chain: VTYPGAIPLSLTSNYETPSPTAIPLEPTPTATGTAELDALWNLVEAQYPVQTAAVTTLVTVPDDYKFEADPPSYALAGYETSEIAGLKFPKGFKFGVAGAAIQVEGAAKAEGRGPSTWDYLCHHYASTQCNNYDPDITTNHYYLYPLDFARLQHLGINTYSFSISWTRIYPLGAGYVNEAGLAHYDAVIHSAKKYGLEPVGTVFHWDTPLSLMLKYGAWQDTGDQIVKDFVTYATTVFKRYGNEVKTWFTFNEPRVFCSQNSGLPYNLTYPEGINSTSAVFRCTYNVLKAHGHAVKVYRDLVASGTIAAGEIGFKSDDNYPIPARPGNADDEESAKRHEAFRIGIFAQPVYGNGDYPDVVKETVGDMLPALTDEDKGYIKGSGDIFAIDGYRTDISHAALNGIANCIRNQSDPNWPVCEEGSDPFAHVYPSGFAIGQSADPLSSWLVNSAPFIRDQLKFLTQTYPAKGGIYFSEFGWAEDAEYDRQLLYQITWDGLRTQYLTDYLSQLLLAVHKDGINLRGALTWSFVDNWEWGLGMQQKFGFQFVNQSDPDLTRTFKLSAHAYAQFGRNHL
modifications: N-glycosylation sites N289, N297, N431, N569 (NAG in the crystal structure); phosphorylation sites found in the crystal structure: T56, T74, T79
notes: Expressed behind the S. cerevisiae alpha factor pre-pro leader (MFα) of pPIC9; the forward primer encodes KR-EAEA before residue 23, so some leader residues (EAEA) may be left on the N-terminus after processing (surmise); Residues 23-53 lack electron density in PDB 7L74; also called rBHT(23–594)-6XHIS; BglA; source: K. phaffii GS115, secreted into the culture medium, purified (HISTrap HP Nickel …)

Tests used:
[1] = molecular target: the molecule itself; assay: SEC; purified variants; single peak, retention time 12.5 min, calculated Mw 150 kDa; data not shown
[2] = molecular target: the molecule itself; assay: SAXS; rBHT(23–594)-HIS in solution at 1 mg/mL and 4 mg/mL; molecular mass by the method of Rambo and Tainer

Row | Protein | stoichiometry N [1] | stoichiometry N [2]
1 | B1 | 2 | 
2 | B2 | 2 | 
3 | B3 | 2 | 
4 | B4 |  | 2
